Patent US20130216547A1 (Regeneron, published 2013)
Numbering of substitutions follows the chain as printed. In names and notes the source's numbering stands.

T1: human big-endothelin-1 (big-ET-1) (human)
T1 construct: 38 amino acid peptide; also called human big-ET-1; hBig-ET-1
T1 peptide: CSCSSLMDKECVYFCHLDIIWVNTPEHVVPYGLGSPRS

T2: mouse big-ET-1 (mouse)
T2 peptide: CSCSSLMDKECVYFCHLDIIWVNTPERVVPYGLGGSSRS

T3: small-ET-1 (endothelin-1) (human)
T3 construct: 21 amino acid peptide, same for mouse and human; also called human small-ET-1; EDN-1
T3 peptide: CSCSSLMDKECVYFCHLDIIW

B1: H4H6316P (antibody, V domains shown)
VH: QVQLVESGGGVVQPGRSLRLSCEASGFTFSSYGMHWVRQAPGKGLEWVAVFWYDGSNKYYADSVKGRFTISRDNSKNTLYLQMNSLTAEDTAIYYCARAYDAFDIWGQGTMVTVSS
VL: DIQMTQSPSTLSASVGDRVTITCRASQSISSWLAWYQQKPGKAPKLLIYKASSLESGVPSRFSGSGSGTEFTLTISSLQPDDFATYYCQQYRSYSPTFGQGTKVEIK
notes: Human IgG4 Fc (prefix H4H)
B2: H4H6317P (antibody, V domains shown)
VH: B1 VH with E23A, F51L, S56R, T87R, I93V, A99S
VL: DIQMTQSPSTLSASVGDRVTITCRASQSISSWLAWFQQGPGRAPKLLIYKASTLQSGVPSRFSGSGSGTEFTLTISSLQPDDFATYYCQQYRSYSPTFGQGTKVEIK
notes: Human IgG4 Fc (prefix H4H)
B3: H4H6311P (antibody, V domains shown)
VH: B1 VH with E23A, S31T, Y53F, L79I, T87R
VL: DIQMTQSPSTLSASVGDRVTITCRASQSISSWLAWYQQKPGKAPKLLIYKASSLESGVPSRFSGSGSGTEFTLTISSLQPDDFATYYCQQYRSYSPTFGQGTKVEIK
notes: Human IgG4 Fc (prefix H4H)
B4: H4H6323P (antibody, V domains shown)
VH: QITLKESGPPLVKPTQTLTLTCTFSGFSLNTNGMGVGWIRQPPGKALEWLTLIYWNDDKRYSPSLKTRLTITKDTSKNQVVLTMTNMDPVDTATYYCARFGSGTYWGQGTLVTVSS
VL: DIVMTQSPLSLPVTPGEPASISCRSSQSLLHSYGYNFLDWFLQKPGQSPQLLIYLGSHRASGVPDRFSGSGSGTDFTLKISRVEAEDVGVYYCMQALQTPLTFGGGTKVEIK
notes: Human IgG4 Fc (prefix H4H)
B5: H4H6330P (antibody, V domains shown)
VH: EVQLVESGGGLVQPGGSLRLSCAASGFTFSNYAMSWVRQAPGKGLEWVSAVSGSGVGTYYADSVKGRFTISRDNSKNTLYLQMKSLSAEDTALYYCTKTLGGTHAFDIWGQGTMVTVSS
VL: DIQMTQSPSTLSASVGDRVTITCRASQSISRWLAWYQQKPGKAPKLLIYKASSLESGVPSRFSGSGSGTEFTVTINSLQPDDFATYYCQQYNSYSSFGQGTKLEIK
notes: Human IgG4 Fc (prefix H4H)
B6: H4H6332P (antibody, V domains shown)
VH: B5 VH with G9E, T28I, N31S, V51I, K84N, S87R, L93V, Y95F, T97A, G101S
VL: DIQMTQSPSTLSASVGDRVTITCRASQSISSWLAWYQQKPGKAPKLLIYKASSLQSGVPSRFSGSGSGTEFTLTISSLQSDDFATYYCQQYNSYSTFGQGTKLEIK
notes: Human IgG4 Fc (prefix H4H)
B7: H4H6492N2 (antibody, V domains shown)
VH: EVQLVESGGGLVKPGGSLRVSCVASGFTFSNAWMTWVRQTPGKGLEWVGRIKSRTDGGTVDYVAPVKGRFTISRDDSKNTLYLQMNSLKAEDTAVYYCRADLDYWGQGTLVTVSS
VL: DVVMTQSPLSLPVSLGQPASISCRSSQSLVHSDGITYLNWFQQRPGQSPRRLIYKISNRDSGVPDRFSGSGSGTDFTLKFSRVEAEDVGVYFCMQGTHWPYTFGQGTKLEIK
notes: Human IgG4 Fc (prefix H4H)
B8: H4H6338P (antibody, V domains shown)
VH: EVQLVESGGGLVQPGGSLRLSCAASGFAFSSYAMTWVRQTPGKGLEWVSSISGSGGSTYYADSVKGRFTISRDNSKNTLYLQMNSLRAEDTAVYYCAKARTGTHAFDIWGQGTMVTVSS
VL: not shown
notes: Human IgG4 Fc (prefix H4H)
B9: H4H6340P (antibody, V domains shown)
VH: EVQLVESGGGLVQPGGSLRLSCAASGFTFSSSAMSWVRQAPGKGLEWVSAISGSGVGTYYAASVKGRFTISRDNSKNILYLQMNDLRAEDTALYYCPKARTGTHAFDIWGQGTMVTVSS
VL: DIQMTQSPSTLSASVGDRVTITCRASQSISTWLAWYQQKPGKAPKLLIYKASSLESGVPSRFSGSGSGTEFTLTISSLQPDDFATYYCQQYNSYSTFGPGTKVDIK
notes: Human IgG4 Fc (prefix H4H)
B10: H4H6345P (antibody, V domains shown)
VH: B8 VH with A28I, T40A, S50A, G56V, A88I, A97G
VL: B5 VL with S56T, V73L, N76S, A84G, Q99P, L103V, E104D
notes: Human IgG4 Fc (prefix H4H)
B11: H4H6343P (antibody, V domains shown)
VH: B9 VH with V5L, S32Y, A62D, I78T, D85S, L93V
VL: not shown
notes: Human IgG4 Fc (prefix H4H)
B12: H4H6347P (antibody, V domains shown)
VH: B9 VH with S31N, S32Y, I78T, D85S, L93V
VL: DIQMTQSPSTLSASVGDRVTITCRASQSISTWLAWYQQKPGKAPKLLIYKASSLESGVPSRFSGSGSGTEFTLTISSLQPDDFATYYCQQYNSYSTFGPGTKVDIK
notes: Human IgG4 Fc (prefix H4H)
B13: H4H6334P2 (antibody, V domains shown)
VH: EVQLVESGGGLVKPGGSLRLSCAVSGFTFSIDWMIWVRQAPGTGLEWVGRIKRKTDGGTTDYAAPVKGRFTISRDDSKNTLYLQMNSLKTEDTAIYYCATGGFERWGQGTLVTVSS
VL: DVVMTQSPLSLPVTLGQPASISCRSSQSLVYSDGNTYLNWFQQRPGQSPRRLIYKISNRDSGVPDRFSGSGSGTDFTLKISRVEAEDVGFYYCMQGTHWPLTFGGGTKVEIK
notes: Human IgG4 Fc (prefix H4H)
B14: H4H6329P (antibody, V domains shown)
VH: QVQLVESGGGVVQPGRSLRLSCAASGFTFGSYGMHWVRQAPGKGLEWVAVIWYDGSDEYYTDSVKGRFTVSRDNSKYTLYLQMNSLRADDTAVYYCARDGYRTRGNYFDYWGQGTLVTVSS
VL: DVVMTQSPLSLPVALGQPASISCRSSQSLVYSDGNTYLNWFQQRPGQSPRRLIYKVSNRDSGVPDRFGGSGSGTDFTLKISRVEAEDVGLYYCMQGTHWPPTFGGGTKVEIK
notes: Human IgG4 Fc (prefix H4H)

Columns and labels:
[1] = molecular target: T1, human big-endothelin-1 (big-ET-1); experiment: SPR (Biacore T200), 37 C, mAb capture, peptide analyte
Method: (§1) Measurements were conducted on a T200 Biacore instrument (Biacore Life Sciences division of GE Healthcare, Piscataway, N.J.). […] Peptide binding was monitored for 3 min while dissociation of mAb-bound peptide was monitored for 4 min in HBST running buffer (0.01 M HEPES pH 7.4, 0.15 M NaCl, 3 mM EDTA, 0.005% v/v Surfactant P20). Kinetic association (kₐ) and dissociation (kd) rate constants were determined by processing and fitting the data to a 1:1 binding model using Scrubber 2.0 curve fitting software.

mouse big-ET-1 [2] = molecular target: T2, mouse big-ET-1; experiment: cell-based or functional assay
[3] = molecular target: T3, small-ET-1 (endothelin-1); experiment: SPR (Biacore T200), 37 C, mAb capture, peptide analyte
Method: as §1

mouse big-ET-1 [4] = molecular target: T2, mouse big-ET-1; experiment: as above
Method: as §1

[5] = molecular target: T1, human big-endothelin-1 (big-ET-1); experiment: cell-based or functional assay

| Binder | Kd [1] [nM] | T½ [1] [s] | koff [1] [s⁻¹] | kon [1] [M⁻¹ s⁻¹] | Blocking IC50(M), 20 nM mBig-ET-1 + 5 nM mECE1; 293/ETaR/NFAT-Luc luciferase (mouse big-ET-1 [2]) [M] | binding result [3] | Kd (mouse big-ET-1 [4]) [nM] | T½ (mouse big-ET-1 [4]) [s] | koff (mouse big-ET-1 [4]) [s⁻¹] | kon (mouse big-ET-1 [4]) [M⁻¹ s⁻¹] | Blocking IC50(M), 10 nM hBig-ET-1 + 3 nM hECE1; 293/ETaR/NFAT-Luc luciferase [5] [M] |
| --- | --- | --- | --- | --- | --- | --- | --- | --- | --- | --- | --- |
| B1 | 14.8 | 1620 | 0.000428 | 28800 | > 1e-07 | no binding | – | – | – | – | – |
| B2 | 5.42 | 3480 | 0.000199 | 36700 | > 1e-07 | no binding | – | – | – | – | – |
| B3 | 15.2 | 2400 | 0.000292 | 19200 | – | no binding | – | – | – | – | – |
| B4 | 10.1 | 120 | 0.00569 | 565000 | 4e-09 | no binding | 32.9 | 36 | 0.0192 | 580000 | 7.6e-09 |
| B5 | 22.9 | 24 | 0.0324 | 1.42e+06 | 1.6e-09 | no binding | 50 | 12 | 0.072 | 1.5e+06 | 1.7e-09 |
| B6 | 29.5 | 18 | 0.0429 | 1.45e+06 | 1.2e-09 | no binding | 100 | 6 | 0.196 | 2e+06 | 3.1e-09 |
| B7 | 70 | 24 | 0.0297 | 424000 | – | no binding | – | – | – | – | 4.17e-08 |
| B8 | – | 6 | 0.12 | 454000 | – | no binding | – | 0.6 | 0.885 | 190000 | – |
| B9 | 11 | 30 | 0.0249 | 2.3e+06 | 1.5e-09 | no binding | 47 | 12 | 0.0603 | 1.3e+06 | 2.1e-09 |
| B10 | 87.4 | 12 | 0.058 | 663000 | – | no binding | 65 | 6 | 0.0974 | 1.5e+06 | – |
| B11 | – | 36 | 0.018 | 1.61e+06 | – | no binding | – | 18 | 0.0453 | 1.8e+06 | – |
| B12 | 13.2 | 30 | 0.0239 | 1.81e+06 | 1e-09 | no binding | 13 | 18 | 0.0414 | 3.1e+06 | 1.5e-09 |
| B13 | 225 | 18 | 0.0349 | 155000 | – | no binding | – | – | – | – | – |
| B14 | 0.297 | 3900 | 0.000176 | 595000 | > 1e-07 | no binding | 19 | 3120 | 0.000223 | 11600 | 3.3e-09 |
